Residue numbers refer to the chain shown, from its start. Numbered stars: 1 amine (or outer) side, 2 acyl side, 3 side chain; on linkers, the order of the positions; unused ones are H or OH. Square brackets hold non-standard residues; d marks the D form. Side chains are listed from the residue outwards. Ends that are not written are not given here. γGlu = O=C(O)[C@H](CCC(=O)[*:2])N[*:1]; x53 = not defined here; Aib = CC(C)(N)C(=O)O
B1: SEQ ID NO: 9 (peptide)
peptide: HXQGTFTSDLSKQKESRAAQDFIEWLKAGGPSSGAPPPS
modifications: dSer at 2; K(γE-x75) at 14; C-terminal NH2
B2: SEQ ID NO: 62 (peptide)
peptide: B1 peptide
modifications: dSer at 2; K(γE-x80) at 14; C-terminal NH2
B3: SEQ ID NO: 93 (peptide)
peptide: B1 peptide with E15D, A18R, A28N, G29A
modifications: dSer at 2; K(γE-x53) at 14; C-terminal NH2
B4: SEQ ID NO: 8 (peptide)
peptide: B1 peptide with E15D, A18R, A28N
modifications: dSer at 2; K(γE-x70) at 14; C-terminal NH2
B5: SEQ ID NO: 86 (peptide)
peptide: B1 peptide with E15D, R17Q, A28N, G29T
modifications: dSer at 2; K(γE-x53) at 14; C-terminal NH2
B6: SEQ ID NO: 68 (peptide)
peptide: B1 peptide with A18R, D21L
modifications: dSer at 2; K(γE-x53) at 14; C-terminal NH2
B7: SEQ ID NO: 60 (peptide)
peptide: B1 peptide
modifications: dSer at 2; K(γE-x77) at 14; C-terminal NH2
B8: SEQ ID NO: 55 (peptide)
peptide: B1 peptide
modifications: dSer at 2; K(γE-x74) at 14; C-terminal NH2
B9: SEQ ID NO: 53 (peptide)
peptide: B1 peptide
modifications: dSer at 2; K(GABA-x70) at 14; C-terminal NH2
B10: SEQ ID NO: 7 (peptide)
peptide: B1 peptide with R17K
modifications: dSer at 2; K(GABA-x53) at 14; C-terminal NH2
B11: SEQ ID NO: 59 (peptide)
peptide: B1 peptide
modifications: dSer at 2; K(γE-x76) at 14; C-terminal NH2
B12: SEQ ID NO: 57 (peptide)
peptide: B1 peptide
modifications: dSer at 2; K(γE-x60) at 14; C-terminal NH2
B13: SEQ ID NO: 52 (peptide)
peptide: B1 peptide
modifications: dSer at 2; K(γE-γE-x70) at 14; C-terminal NH2
B14: SEQ ID NO: 94 (peptide)
peptide: B1 peptide with E15D, A18R, A28N, G29X
modifications: dSer at 2; K(γE-x53) at 14; dAla at 29; C-terminal NH2
B15: SEQ ID NO: 71 (peptide)
peptide: B1 peptide with K14X, A18R
modifications: dSer at 2; Orn(γE-x53) at 14; C-terminal NH2
B16: SEQ ID NO: 11 (peptide)
peptide: B1 peptide with R17X
modifications: dSer at 2; K(γE-x70) at 14; Aib at 17; C-terminal NH2
B17: SEQ ID NO: 64 (peptide)
peptide: B1 peptide
modifications: dSer at 2; K(γE-x82) at 14; C-terminal NH2
B18: SEQ ID NO: 85 (peptide)
peptide: B1 peptide with A18R, A28K
modifications: dSer at 2; K(γE-x53) at 14; C-terminal NH2
B19: SEQ ID NO: 65 (peptide)
peptide: B1 peptide
modifications: dSer at 2; K(γE-x70) at 14; C-terminal NH2
B20: SEQ ID NO: 56 (peptide)
peptide: B1 peptide
modifications: dSer at 2; K(GABA-x74) at 14; C-terminal NH2
B21: SEQ ID NO: 92 (peptide)
peptide: B1 peptide with E15D, A18R, A28N, G29T
modifications: dSer at 2; K(γE-x53) at 14; C-terminal NH2
B22: SEQ ID NO: 63 (peptide)
peptide: B1 peptide
modifications: dSer at 2; K(γE-x81) at 14; C-terminal NH2
B23: SEQ ID NO: 90 (peptide)
peptide: B1 peptide with E15D, A18R, A28N
modifications: dSer at 2; K(γE-x69) at 14; C-terminal NH2
B24: SEQ ID NO: 61 (peptide)
peptide: B1 peptide
modifications: dSer at 2; K(γE-x79) at 14; C-terminal NH2
B25: SEQ ID NO: 77 (peptide)
peptide: H[Aib]QGTFTSDLSKQK([γGlu-x53])ESRRAQDFIEWLKAGGPSSGAPPPS-NH2
modifications: reading uncertain

What follows are binders tested against human GLP-1 receptor (human, UniProt P43220 24-463) (assay: cell-based or functional assay).

Compared with B1, B2 is 1.8-fold higher in “EC50 hGLP-1R (cAMP)” value: 2.2 pM for the first, 3.9 pM for the second.

Compared with B3, B4 is 1.7-fold lower in “EC50 hGLP-1R (cAMP)” value: 10.7 pM for the first, 6.3 pM for the second.

Compared with B5, B6 is 1.6-fold higher in “EC50 hGLP-1R (cAMP)” value: 4.9 pM for the first, 7.9 pM for the second.

Compared with B7, B8 is 7.1-fold lower in “EC50 hGLP-1R (cAMP)” value: 38.4 pM for the first, 5.4 pM for the second.

Compared with B9, B10 is 1.5-fold lower in “EC50 hGLP-1R (cAMP)” value: 5.4 pM for the first, 3.5 pM for the second.

Compared with B11, B12 is 5.7-fold higher in “EC50 hGLP-1R (cAMP)” value: 7.9 pM for the first, 45 pM for the second.

Going from B13 to B14, the “EC50 hGLP-1R (cAMP)” value rises from 1.9 pM to 5.2 pM (2.7-fold).

Compared with B15, B16 is 5.7-fold lower in “EC50 hGLP-1R (cAMP)” value: 20.5 pM for the first, 3.6 pM for the second.

Going from B17 to B18, the “EC50 hGLP-1R (cAMP)” value rises from 3.1 pM to 8.1 pM (2.6-fold).

B19 and B20 are within 1.5-fold of each other in “EC50 hGLP-1R (cAMP)” value: 5 pM for the first, 4.5 pM for the second.

Going from B21 to B22, the “EC50 hGLP-1R (cAMP)” value falls from 26 pM to 4.9 pM (5.3-fold).

Going from B23 to B24, the “EC50 hGLP-1R (cAMP)” value falls from 8.8 pM to 5.3 pM (1.7-fold).

With B25 the “EC50 hGLP-1R (cAMP)” value was 4.3 pM.

Each binder was assayed against human glucagon receptor (human, UniProt P47871 26-477) (assay: cell-based or functional assay).
Sequence of human glucagon receptor (P47871 26-477): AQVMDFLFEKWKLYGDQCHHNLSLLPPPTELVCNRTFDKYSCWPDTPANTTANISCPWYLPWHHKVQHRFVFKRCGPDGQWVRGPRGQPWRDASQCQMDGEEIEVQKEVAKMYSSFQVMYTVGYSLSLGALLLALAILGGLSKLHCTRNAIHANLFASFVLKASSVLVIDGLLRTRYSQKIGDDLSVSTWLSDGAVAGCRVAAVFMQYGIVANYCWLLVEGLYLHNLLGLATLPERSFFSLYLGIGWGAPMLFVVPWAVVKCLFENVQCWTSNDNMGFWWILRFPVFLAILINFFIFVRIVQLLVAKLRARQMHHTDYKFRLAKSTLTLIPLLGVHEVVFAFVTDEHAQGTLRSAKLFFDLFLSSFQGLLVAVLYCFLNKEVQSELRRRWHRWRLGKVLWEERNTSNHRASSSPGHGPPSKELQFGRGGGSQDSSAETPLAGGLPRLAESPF

First: B1
Second: B2
The “EC50 hGlucagon-R (cAMP)” value of the first is 2.6-fold lower: 4.1 pM for the first, 10.6 pM for the second.

B3 and B4 are within 1.5-fold of each other in “EC50 hGlucagon-R (cAMP)” value: 2.6 pM for the first, 2.3 pM for the second.

Going from B5 to B6, the “EC50 hGlucagon-R (cAMP)” value rises from 3.5 pM to 5.7 pM (1.6-fold).

B7 and B8 are within 1.5-fold of each other in “EC50 hGlucagon-R (cAMP)” value: 19.3 pM for the first, 15.8 pM for the second.

Compared with B9, B10 is 3.2-fold higher in “EC50 hGlucagon-R (cAMP)” value: 6.5 pM for the first, 20.7 pM for the second.

B11 and B12 are within 1.5-fold of each other in “EC50 hGlucagon-R (cAMP)” value: 6.8 pM for the first, 8 pM for the second.

B13 and B14 are within 1.5-fold of each other in “EC50 hGlucagon-R (cAMP)” value: 2 pM for the first, 2.1 pM for the second.

Going from B15 to B16, the “EC50 hGlucagon-R (cAMP)” value rises from 5.6 pM to 25.7 pM (4.6-fold).

First: B17
Second: B18
The “EC50 hGlucagon-R (cAMP)” value of the first is 1.5-fold lower: 6.9 pM for the first, 10.4 pM for the second.

Going from B19 to B20, the “EC50 hGlucagon-R (cAMP)” value rises from 5.6 pM to 29.3 pM (5.2-fold).

Going from B21 to B22, the “EC50 hGlucagon-R (cAMP)” value rises from 1 pM to 8.4 pM (8.4-fold).

Going from B23 to B24, the “EC50 hGlucagon-R (cAMP)” value rises from 3.7 pM to 16 pM (4.3-fold).

With B25 the “EC50 hGlucagon-R (cAMP)” value was 11.9 pM.
